Source: patent US20250295799A1 (Zymeworks, published 2025)
Where a chain is given by its changes, count along the chain named.

B1: H18L6_LC_G34D mAb, v40203 (antibody, human IgG1, kappa, V domains shown)
VH: QVQLVQSGAEVKKPGSSVKVSCKASGYTFTDYEMHWVKQAPGHGLEWIGAIDPETGDTAYNQKFKGKATLTADTSTSTAYMELSSLRSEDTAVYYCTRYFSFAYWGQGTLVTVSS
VL: EIVLTQSPATLSLSPGERATISCRSSQSLRHSNDNTYLQWYQQKPGQAPRLLIYKVSNRFSGVPARFSGSGSGTDFTLTISSLEPEDFAVYFCYQSKHVPYTFGGGTKVEIKR
B2: H18L6_LC_G34A mAb, v40212 (antibody, human IgG1, kappa, V domains shown)
VH: B1 VH
VL: B1 VL with D34A
notes: M3-H18L6 chains with the stated light chain point mutation, IgG1/kappa
B3: M3-H18L6 (WT) mAb, v38592 (antibody, human IgG1, kappa)
heavy: not shown
light: EIVLTQSPATLSLSPGERATISCRSSQSLRHSNGNTYLQWYQQKPGQAPRLLIYKVSNRFSGVPARFSGSGSGTDFTLTISSLEPEDFAVYFCYQSKHVPYTFGGGTKVEIKRTVAAPSVFIFPPSDEQLKSGTASVVCLLNNFYPREAKVQWKVDNALQSGNSQESVTEQDSKDSTYSLSSTLTLSKADYEKHKVYACEVTHQGLSSPVTKSFNRGEC
notes: Full-size IgG1/kappa; also called wild-type M3-H18L6; M3-H18L6 with HC C-terminal lysine
B4: v40211, H18L6_LC_G34V mAb (antibody, human IgG1, kappa, V domains shown)
VH: B1 VH
VL: B1 VL with D34V
notes: no number given for this variant
B5: v40216, H18L6_LC_N33R mAb (antibody, human IgG1, kappa, V domains shown)
VH: B1 VH
VL: B1 VL with N33R, D34G
notes: as for B4
B6: v40213, H18L6_LC_N33E mAb (antibody, human IgG1, kappa, V domains shown)
VH: B1 VH
VL: B1 VL with N33E, D34G
notes: as for B4
B7: v40219, H18L6_LC_N33A mAb (antibody, human IgG1, kappa, V domains shown)
VH: B1 VH
VL: B1 VL with N33A, D34G
notes: as for B4
B8: v40218, H18L6_LC_N33H mAb (antibody, human IgG1, kappa, V domains shown)
VH: B1 VH
VL: B1 VL with N33H, D34G
notes: as for B4
B9: v40217, H18L6_LC_N33K mAb (antibody, human IgG1, kappa, V domains shown)
VH: B1 VH
VL: B1 VL with N33K, D34G
notes: as for B4
B10: v40212, H18L6_LC_G34A mAb (antibody, human IgG1, kappa, V domains shown)
VH: B1 VH
VL: B1 VL with D34A
notes: as for B4
B11: v40215, H18L6_LC_N33V mAb (antibody, human IgG1, kappa, V domains shown)
VH: B1 VH
VL: B1 VL with N33V, D34G
notes: as for B4
B12: v40214, H18L6_LC_N33T mAb (antibody, human IgG1, kappa, V domains shown)
VH: B1 VH
VL: B1 VL with N33T, D34G
notes: as for B4
B13: v40220, H18L6_LC_N33Q mAb (antibody, human IgG1, kappa, V domains shown)
VH: B1 VH
VL: B1 VL with N33Q, D34G
notes: as for B4
B14: v40221, H18L6_LC_N33S mAb (antibody, human IgG1, kappa, V domains shown)
VH: B1 VH
VL: B1 VL with N33S, D34G
notes: as for B4
B15: v36180-MC-GGFG-AM-Compound 141 (DAR8) (antibody, human IgG1, kappa, V domains shown)
VH: B1 VH with Q1E, K38R, H43Q, K67R, T74K
VL: DVQMTQSPSSVSASVGDRVTITCRSSQSLRHSNGNTYLQWYQQKPGKAPKLLIYKVSNRFSGVPSRFSGSGSGTDFTLTISSLQPEDFATYFCYQSKHVPYTFGQGTKVEIKR
modifications: MC-GGFG-AM-Compound 141 drug-linker on reduced cysteines, sites not stated; MC-GGFG-AM-Compound 141 drug-linker on reduced cysteines, sites not stated; DAR 8 for the whole antibody
B16: v36180-MC-GGFG-AM-Compound 139 (DAR8) (antibody, human IgG1, kappa, V domains shown)
VH: B1 VH with Q1E, K38R, H43Q, K67R, T74K
VL: B15 VL
modifications: MC-GGFG-AM-Compound 139 drug-linker on reduced cysteines, sites not stated; MC-GGFG-AM-Compound 139 drug-linker on reduced cysteines, sites not stated; DAR 8 for the whole antibody
B17: v36180-MC-GGFG-Compound 141 (DAR8) (antibody, human IgG1, kappa, V domains shown)
VH: B1 VH with Q1E, K38R, H43Q, K67R, T74K
VL: B15 VL
modifications: MC-GGFG-Compound 141 drug-linker on reduced cysteines, sites not stated; MC-GGFG-Compound 141 drug-linker on reduced cysteines, sites not stated; DAR 8 for the whole antibody

These binders were tested against T1, human glypican-3 (GPC3) (human, UniProt P51654 25-554) (assay: flow cytometry on JHH-5 cells (GPC3-mid);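 further: antibody binding to cells at 4 °C for 24 h, detected with anti-human AF647 as geometric mean fluorescence of live cells versus antibody concentration, fitted by specific binding with Hill slope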).
T1 construct: Endogenous on JHH-7, JHH-5, HepG2 and NCI-H446 tumour cells, or transiently expressed on CHO-S cells from a pTT5 plasmid; also called hGPC3; huGPC3
Wherever JHH-5 Internalization (MFI) is given: test concentration or dose not given here.
Wherever JHH-5 Internalization (MFI), Day 0 in mouse plasma is given: test concentration or dose not given here.
Wherever JHH-5 Internalization (MFI), Day 14 in mouse plasma is given: test concentration or dose not given here.
Wherever JHH-7 Internalization (MFI) is given: test concentration or dose not given here.
Wherever JHH-7 Internalization (MFI), Day 0 in mouse plasma is given: test concentration or dose not given here.
Wherever JHH-7 Internalization (MFI), Day 14 in mouse plasma is given: test concentration or dose not given here.

| Binder | Bmax (MFI) | Kd |
| --- | --- | --- |
| B1 | 4280 MFI | 0.24 nM |
| B2 | 3850 MFI | 0.31 nM |
| B3 | 4670 MFI | 0.12 nM |

Each binder was assayed against T1, human glypican-3 (GPC3) (assay: flow cytometry on JHH-7 cells; antibody after 14 days in mouse plasma at 37 C).
Experimental: (§1) For binding cells were seeded at 50,000 cells/well in V-bottom 96-well plates and treated with antibody for 24 hours at 4° C. to prevent internalization. […] Following incubation and washing, fluorescence was detected by flow cytometry on a BD LSRFortessa™ Cell Analyzer (BD Biosciences, Franklin Lake, NJ) with 1,000 minimum events collected per well. AF647/APC-A GeoMean (fluorescence signal geometric mean, proportional to anti-Human AF647 binding) in live cell population was plotted against antibody concentration using GraphPad Prism Version 9 (GraphPad Software, San Diego, CA). The Bmax, Curve Hill Slope (h) and Kd values were derived from the “Specific binding with Hill slope” nonlinear regression curve fit in GraphPad Prism Version 9.

| Binder | Bmax (MFI) | Kd |
| --- | --- | --- |
| B1 | 8060 MFI | 0.62 nM |
| B2 | 11300 MFI | 0.28 nM |

Each binder was assayed against T1, human glypican-3 (GPC3) (assay: cell-based or functional assay).

| Binder | JHH-5 Internalization (MFI) | JHH-7 Internalization (MFI) |
| --- | --- | --- |
| B1 | 6770 MFI | 5010 MFI |
| B2 | 9070 MFI | 8070 MFI |
| B3 | 10500 MFI | 7260 MFI |

Each binder was assayed against T1, human glypican-3 (GPC3) (assay: flow cytometry on JHH-5 cells; antibody after 14 days in mouse plasma at 37 C).
Experimental: as §1

| Binder | Bmax (MFI) | Kd |
| --- | --- | --- |
| B1 | 4520 MFI | 0.34 nM |
| B2 | 6050 MFI | 0.23 nM |

Each binder was assayed against T2, recombinant cynomolgus GPC3 (glypican-3) (cynomolgus monkey, UniProt A0A2K5VK50 24-558) (assay: SPR (Biacore T200), antibody captured by anti-Fc, GPC3 injected, single-cycle kinetics, 1:1 fit; average).
T2 construct: also called cynoGPC3
Experimental: (§2) CM5 Series S sensor chip, Biacore™ amine coupling kit (NHS, EDC and 1 M ethanolamine), and 10 mM sodium acetate buffers were purchased from Cytiva Life Sciences (Mississauga, ON, Canada). PBS running buffer with 0.05% Tween20 (PBST) was purchased from Teknova Inc. (Hollister, CA). Antigens: recombinant human and cynomolgus GPC3 was purchased from ACROBiosystems (Newark, DE) and SEC purified on a Superdex 200 10/300 GL column (Cytiva) in PBST running buffer at 0.8 mL/min.
(§3) Screening of the antibodies for binding to GPC3 antigen was conducted via anti-Fc capture of antibodies, followed by the injection of five concentrations of GPC3. The anti-Fc surface was prepared on a CM5 Series S sensor chip by standard amine coupling methods as described by the manufacturer (Cytiva Life Sciences, Mississauga, ON, Canada). […] Approximately 150-400 RUs of each antibody (5-20 μg/mL) were captured on the goat anti-human IgG surface by injecting at 10 μL/min for 60s. Using single-cycle kinetics, five concentrations of a two-fold dilution series of human or cynomolgus GPC3 starting at 40 nM, 20 nM, 10 nM, or 5 nM depending on the antibody, with a blank buffer control were injected at 20 μL/min for 180s of contact time, followed by 180 s dissociation phase, resulting in sensorgrams with a buffer blank reference. The anti-Fc surface was regenerated to prepare for the next injection cycle by one pulse of 10 mM glycine/HCl pH 1.5 for 120 s at 40 μL/min. Blank-subtracted sensorgrams were analyzed and fit to the 1:1 Langmuir binding model using Biacore™ T200 Evaluation Software v3.2.

| Binder | Kd |
| --- | --- |
| B4 | 18.5 nM |
| B5 | 11.1 nM |
| B6 | 16.6 nM |
| B7 | 10.4 nM |
| B8 | 9.57 nM |
| B9 | 14 nM |
| B10 | 7.78 nM |
| B11 | 17.8 nM |
| B12 | 16.4 nM |
| B13 | 15.7 nM |
| B14 | 15.8 nM |

What follows are binders tested against T1, human glypican-3 (GPC3) (assay: flow cytometry on JHH-7 cells; antibody in mouse plasma, day 0).
Experimental: as §1

| Binder | Bmax (MFI) | Kd |
| --- | --- | --- |
| B1 | 9140 MFI | 0.26 nM |
| B2 | 8360 MFI | 0.36 nM |
| B3 | 9770 MFI | 0.39 nM |

Molecular target: T1, human glypican-3 (GPC3)
Assay: cell-based or functional assay
Remark: another data set of the same source

| Binder | JHH-5 Internalization (MFI), Day 0 in mouse plasma | JHH-5 Internalization (MFI), Day 14 in mouse plasma | JHH-7 Internalization (MFI), Day 0 in mouse plasma | JHH-7 Internalization (MFI), Day 14 in mouse plasma |
| --- | --- | --- | --- | --- |
| B1 | 8690 MFI | 5690 MFI | 104 MFI | 63 MFI |
| B2 | 10200 MFI | 7290 MFI | 131 MFI | 75 MFI |
| B3 | 12200 MFI | 7250 MFI | 152 MFI | 76 MFI |

What follows are binders tested against T1, human glypican-3 (GPC3) (assay: flow cytometry on JHH-7 cells (GPC3-high);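 further: antibody binding at 4 °C for 24 h, detected with anti-human AF647 secondary, geometric mean fluorescence of live cells versus antibody concentration, fitted as specific binding with Hill slope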).
Experimental: Briefly, cells were seeded at 50,000 cells/well in V-bottom 96-well plates and treated with antibody for 24 hours at 4° C. to prevent internalization. […] Following incubation and washing, fluorescence was detected by flow cytometry on a BD LSRFortessa™ Cell Analyzer (BD Biosciences, Franklin Lake, NJ) with 1,000 minimum events collected per well. AF647/APC-A GeoMean (fluorescence signal geometric mean, proportional to anti-Human AF647 binding) in live cell population was plotted against antibody concentration using GraphPad Prism Version 9 (GraphPad Software, San Diego, CA). The Bmax, Curve Hill Slope (h) and Kd values were derived from the “Specific binding with Hill slope” nonlinear regression curve fit in GraphPad Prism Version 9.

| Binder | Bmax (MFI) | Kd |
| --- | --- | --- |
| B1 | 12200 MFI | 0.4 nM |
| B2 | 13300 MFI | 0.56 nM |
| B3 | 14100 MFI | 0.42 nM |

Each binder was assayed against human GPC3 on cells (human, UniProt P51654 25-554) (assay: cell-based or functional assay).

| Binder | EC50 (nM), cytotoxicity, 2D monolayer, HepG2 (High) | EC50 (nM), cytotoxicity, 2D monolayer, Huh-6 (Mid) | EC50 (nM), cytotoxicity, 2D monolayer, Huh-7 (Mid) | EC50 (nM), cytotoxicity, 2D monolayer, JHH-5 (Mid) | EC50 (nM), cytotoxicity, 2D monolayer, JHH-7 (High) |
| --- | --- | --- | --- | --- | --- |
| B15 | 0.03 nM | 0.12 nM | 0.01 nM | 0.08 nM | 0.02 nM |
| B16 | 0.09 nM |  | 0.01 nM | 0.14 nM | 1 nM |
| B17 | 0.03 nM | 0.12 nM | 0.03 nM | 0.11 nM | 0.03 nM |

These binders were tested against T3, recombinant human GPC3 (glypican-3) (human, UniProt P51654 25-559) (assay: SPR (Biacore T200), antibody captured by anti-Fc, GPC3 injected, single-cycle kinetics, 1:1 fit; average).
T3 construct: also called huGPC3; hGPC3
Experimental: as §2, §3

| Binder | Kd |
| --- | --- |
| B4 | 21 nM |
| B5 | 20.1 nM |
| B6 | 22.7 nM |
| B7 | 18.3 nM |
| B8 | 20.1 nM |
| B9 | 18.2 nM |
| B10 | 12.5 nM |
| B11 | 22.5 nM |
| B12 | 19.9 nM |
| B13 | 17.5 nM |
| B14 | 19.5 nM |

The binders below were run against T3, recombinant human GPC3 (glypican-3) (assay: SPR (Biacore T200), antibody captured by anti-Fc, GPC3 injected).
Experimental: as §2, §3

| Binder | Avg % binding huGPC3 (RU observed/theoretical) |
| --- | --- |
| B4 | 23.4% |
| B5 | 15.8% |
| B6 | 14.9% |
| B7 | 17.4% |
| B8 | 15.6% |
| B9 | 15.5% |
| B10 | 42.5% |
| B11 | 17.5% |
| B12 | 21.3% |
| B13 | 16.1% |
| B14 | 18% |

Each binder was assayed against T2, recombinant cynomolgus GPC3 (glypican-3) (assay: SPR; Kd on human GPC3 divided by Kd on cynomolgus GPC3).
Experimental: as §2, §3

| Binder | Kd Fold difference (hu/cyno) |
| --- | --- |
| B4 | 1.13 fold |
| B5 | 1.82 fold |
| B6 | 1.37 fold |
| B7 | 1.77 fold |
| B8 | 2.1 fold |
| B9 | 1.3 fold |
| B10 | 1.61 fold |
| B11 | 1.27 fold |
| B12 | 1.21 fold |
| B13 | 1.12 fold |
| B14 | 1.24 fold |

These binders were tested against T1, human glypican-3 (GPC3) (assay: flow cytometry on CHO-S cells transfected with human GPC3;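 further: antibody binding to transiently transfected CHO-S cells after 24 hours at 4 °C, read as geometric mean fluorescence of anti-human AF647 in live cells, fitted against antibody concentration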).
Experimental: (§4) Briefly, CHO—S cells were transiently transfected for −24 hours with a pTT5-based expression plasmid encoding human GPC3 or cynomolgus monkey GPC3, 0.5 μg DNA per 1 million cells, using the Neon™ Transfection System (Thermo Fisher Scientific Corp., Waltham, MA), to transiently express human or cynomolgus monkey GPC3. Cells transfected with GFP were used as negative transfection controls. Following transfection, cells were seeded at 50,000 cells/well in V-bottom 96-well plates and treated with antibody for 24 hours at 4° C. to prevent internalization. […] Following incubation and washing, fluorescence was detected by flow cytometry on a BD LSRFortessa™ Cell Analyzer (BD Biosciences, Franklin Lake, NJ) with 1,000 minimum events collected per well. AF647/APC-A GeoMean (fluorescence signal geometric mean, proportional to anti-Human AF647 binding) in live cell population was plotted against antibody concentration using GraphPad Prism Version 9 (GraphPad Software, San Diego, CA). The Bmax and Kd values were derived from the “Specific binding with Hill slope” nonlinear regression curve fit in GraphPad Prism Version 9.

| Binder | Bmax (MFI) | Kd |
| --- | --- | --- |
| B1 | 2470 MFI | 0.18 nM |
| B2 | 2200 MFI | 0.12 nM |
| B3 | 2530 MFI | 0.14 nM |

What follows are binders tested against T1, human glypican-3 (GPC3) (assay: flow cytometry on JHH-5 cells; antibody in mouse plasma, day 0).
Experimental: as §1

| Binder | Bmax (MFI) | Kd |
| --- | --- | --- |
| B1 | 4660 MFI | 0.11 nM |
| B2 | 4930 MFI | 0.15 nM |
| B3 | 5130 MFI | 0.14 nM |

Each binder was assayed against T4, cynomolgus monkey glypican-3 (GPC3) (cynomolgus monkey, UniProt A5A6P7 25-554 (Pan troglodytes entry)) (assay: flow cytometry on CHO-S cells transfected with cynomolgus GPC3;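 further: antibodies incubated 24 h at 4 °C with transiently transfected cells, binding read as AF647 geometric mean fluorescence of live cells, GFP-transfected cells as negative control, Hill-slope specific-binding fit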).
T4 construct: Transiently expressed on CHO-S cells; also called cynoGPC3; CynoGPC3-CHO
Experimental: as §4

| Binder | Bmax (MFI) | Kd |
| --- | --- | --- |
| B1 | 2870 MFI | 0.18 nM |
| B2 | 3160 MFI | 0.25 nM |
| B3 | 3150 MFI | 0.19 nM |
